The numbers were not newly measured in publication PMC3164694, which cites them from elsewhere.

In one series the target is TIMP-2 (Homo sapiens) (UniProt P16035).
A further series addresses MMP-2 (Homo sapiens) (UniProt P08253).

Chain of MMP-2 (Homo sapiens) (P08253 110-660): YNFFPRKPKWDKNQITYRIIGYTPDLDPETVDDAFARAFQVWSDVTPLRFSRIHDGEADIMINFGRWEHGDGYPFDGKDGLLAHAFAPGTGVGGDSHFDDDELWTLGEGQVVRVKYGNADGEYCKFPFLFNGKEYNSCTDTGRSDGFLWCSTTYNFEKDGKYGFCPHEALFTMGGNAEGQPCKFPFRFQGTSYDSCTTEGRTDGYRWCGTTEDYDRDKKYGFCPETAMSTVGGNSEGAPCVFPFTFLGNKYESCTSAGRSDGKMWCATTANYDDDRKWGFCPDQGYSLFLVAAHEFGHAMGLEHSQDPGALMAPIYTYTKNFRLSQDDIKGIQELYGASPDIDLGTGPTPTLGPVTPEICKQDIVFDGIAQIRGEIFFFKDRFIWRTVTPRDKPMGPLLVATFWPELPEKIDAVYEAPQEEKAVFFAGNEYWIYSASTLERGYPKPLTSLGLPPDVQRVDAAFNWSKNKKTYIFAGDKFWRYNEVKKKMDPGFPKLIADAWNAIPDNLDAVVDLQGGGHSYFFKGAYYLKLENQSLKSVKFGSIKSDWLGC

On to MT1-MMP (from UniProt P50281), for which the Kd with TIMP-2 (Homo sapiens) is 2.54 nM.
Take “MT1-MMP/TIMP-2 complex (from UniProt P50281)”: the dissociation constant Kd with MMP-2 (Homo sapiens) was 0.56 nM.

What is called Kd is the equilibrium constant for the complex coming apart.
